From patent publication US20080260727A1

How the values were obtained:
8.3 TcR = test: tetramer staining, flow cytometry on CD8+ T cells of 8.3 TcR-transgenic NOD mice
human NKG2D (human) [1] = biological target: human NKG2D (human) (UniProt P26718); test: cell-based or functional assay
human NKG2D (human) [2] = biological target: human NKG2D (human) (UniProt P26718); test: flow cytometry on NKL cells, biotin mAb on ice 30 min, APC-streptavidin, before culture (0 h)
human NKG2D (human) [3] = biological target: human NKG2D (human) (UniProt P26718); test: flow cytometry on NKL cells, biotin mAb on ice 30 min, then 16 h at 37° C., APC-streptavidin (antibody left on the surface after culture)

Chain of UniProt P26718 (P26718 whole entry T72A): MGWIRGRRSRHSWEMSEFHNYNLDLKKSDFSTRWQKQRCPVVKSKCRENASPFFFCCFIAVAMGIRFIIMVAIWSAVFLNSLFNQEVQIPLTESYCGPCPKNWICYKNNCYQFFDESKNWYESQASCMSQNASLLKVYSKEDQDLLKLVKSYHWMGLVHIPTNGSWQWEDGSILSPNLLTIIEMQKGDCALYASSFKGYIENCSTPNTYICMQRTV

NRP-V7/H-2K^d tetramer (from UniProt P01902 22-305) (peptide-MHC)
percent of CD8+ T cells tetramer positive (8.3 TcR): > 90%

mouse anti-human NKG2D mAb (R&D Systems clone 149810) (antibody)
decrease in expression of NKG2D on the cell surface (human NKG2D (human) [1]): 67%
mean fluorescence intensity (arbitrary units) (arbitrary units) (human NKG2D (human) [2]): 186
mean fluorescence intensity (arbitrary units) (arbitrary units) (human NKG2D (human) [3]): 61
